According to the DeepSol protein solubility set:

Assay: soluble on expression in E. coli; label from the status in PepcDB or PDB records

| Sequence | soluble on expression in E. coli |
| --- | --- |
| MGSDKIHHHHHHMKSILLFMIFVVCQLEGKKFSQDNFKVDYNYYLRKQDLHIIKTQNDLSNSWYLPPQKAPKEHSWVDFAKKYLNMMDYLGTYFLPFYHSFTPIFQWYHPNINPYQRNEFKFQISFRVPVFRHILWTKGTLYLAYTQTDWFQIYNDPQSAPMRMMNFMPELIYVYPINFKPFGGKIGNFSEIWIGWQHISNGVGGAQCYQPFNKEGNPENQFPGQPVIVKDYNGQKDVRWGGCRSVSAGQRPVFRLVWEKGGLKIMVAYWPYVPYDQSNPNLIDYMGYGNAKIDYRRGRHHFELQLYDIFTQYWRYDRWHGAFRLGYTYRINPFVGIYAQWFNGYGDGLYEYDVFSNRIGVGIRLNP | not soluble |
| MSLAMKKHLFTLTLSSVLAIPAVSHAEFKGGFADIGIHYLDWTSRTTEKSSTKSHKDDFGYLELEGGANFSWGEMYGFFDWENFYNDRHDKPGSEQRYTFKNTNRIYLGDTGFNLYLHAYGTYGSANRVNFHDDMFLYGIGYNFTGSGWWFKPFFAKRYTDQTYYTGDNGYVAGWVAGYSFMLGSEKFTLTNWNEYEFDRDATYAAGNGGKEGLNGAVALWWNATSHITTGIQYRYADDKLGEDFYQDAIIYSIKFNFEGHHHHHH | not soluble |
| MSTCKQFLSTKKKSKDSYEFIENLGEGSFAEVVLVAKVGTPNKMFAMKEISIVGKDECFMESIKRECSIQKRLSKSRHLNMIHLFEIRTNPENYQLILSYADGGDLFEKINQHGGLGSDEAHRYFKQLIDGLRFIHEEGVTHRDIKPENLLLTKSGILKIADFGFATMHRFNGAEQMLNAYCGSPPYIAPEVLTGIDYRGPAVDIWSAGVVLIAMIAGAVPWEQADHFDIFQSRYCSFRRNGRKGAWSRMSQQVISLLRKILLQAELRATISMIEEDPWFIYGEEVDAENKENGSQAQYRQESQTSSKPILNFENLLKDLNVSI | not soluble |
| MGSDKIHHHHHHMKFYNREKEVAELKRVQELAFTQNSRMIVVTGRRRIGKTSLIKEALKGTPTVYLFIGRKAESILVTDFVKIVRETLSIFVPEGIPTFTNLMQYLFEVGKTRAFNIVIDEFQEFYNIRPDVFSDMQNLWDEYKQETKINLVISGSVYSLMQKIFTDHNEPLFGRADNILCLRAFKIGVLKQIMEDLASGYSNDDLLALYTLTGGIPKYVELFCDNQALTIDKMYDFVFSENSLFIDEGRNLLITEFGKNYGTYFSILSEIANGHYTQGEIESALGGTAIGGYLSKLENVYNLITRERPIFAKPGTKKNVRYVIGDNFLNFWFKYIEQNRSYIELQNFDDLRQLAKADYPTYSGRVLEKYFKQKLAETGGFKEIGSWWETKSSIGKQRINSYEIDIVALKSSGKKALIAEVKRVPENNYSHTVFMEKVEHLKQKEMSKYDIETQVLGLKDM | not soluble |
| MAHHHHHHMVSNVADVRQINLTDSSNFLLMACDGLWDVVENEEATQFVRDFLSYTPDVGSSPEATKRALNNCCQKLAEFAVDRGSTDNVSVMLLFFHDVADVVAGFDKPVGAVVSPPASQVLSPRLTGPSRGIPFGSSMLDGGLHTSSGTSGTRRPSFGSVSSLHGRGRSIW | not soluble |
| MTEPLTETPELSAKYAWFFDLDGTLAEIKPHPDQVVVPDNILQGLQLLATASDGALALISGRSMVELDALAKPYRFPLAGVHGAERRDINGKTHIVHLPDAIARDISVQLHTVIAQYPGAELEAKGMAFALHYRQAPQHEDALMTLAQRITQIWPQMALQQGKCVVEIKPRGTSKGEAIAAFMQEAPFIGRTPVFLGDDLTDESGFAVVNRLGGMSVKIGTGATQASWRLAGVPDVWSWLEMITTALQQKRENNRSDDYESFSRSILEHHHHHH | not soluble |
| QMNTVFIKNEGVTEGEIATIGEHTAEISGVSTGTDWTRDYSQSGALRSLLGTVSTEKQGLPAEEVDEYLKKGYARNDRVGTSYLEKQYEDVLQGKKAKSEVVLDNNGKIVSQTPISKGEKGSNLKLTID | not soluble |
| SDRFTSQSSFVVRSPKSQSSLNGLGAILQGTGFARAQDDIYTVGEYMRSRSSLDELRKILPVREFYETKGDAFSRFNGFGFRGEEEAFYQYYKNQ | not soluble |
| GSHMVEMRMKKCPKCGLYTLKEICPKCGEKTVIPKPPKFSLEDRWGKYRRMLKRALKNKNKAE | soluble |
| MVGHKYPVKCLEVDKSKGRLVVSHRRAMAERQMEHLKTGALVEGTVQGVKPYGVFVDVFGTSGLLHISQISHDQVANIQSLFLPGEKVKCMVVSFDKQRGRISLSTKALEPHPGDMLRNKQLVYEKAEEMALSYNQRMDSPVRSKNTTSSSTDDIIAGLDIGSLDDLDPILFGTHTNSSNSNTHSDHLKQDSMNGTIPESDI | not soluble |
| MGSDKIHHHHHHQDGPLRIEITDGVIEPLPFAVPDFIADTPAAAQYATDIARVIAQDLVGSGLFREIPKVAYISPYTDFDAEVNFTDWKAINAQALIAGAVSLSGDRITVRFRGYDVFAGQELGAGLQLSGTTDGWRRIAHKVADTIYSRLTGEGGYFDSRVVFVSETGPKNDRKKRLAIMDYDGANVQYLTNSDAIVLAPRFSPTGDRVLYTSYESGFPQIHVLDVGRVQRRVLSAGNGSMSFAPRFAPNGQTIVYSQSQGGNTDLFSMDINSGNPQRLTSAPSIETAPSFSPDGSQIVFESDRSGTSQLYVMSASGGEAKRISFGQGRYGTPVWSPRGDYIAFTKQNAGRFHIGVMRTDGSEERLLTASFLDEGPTWSPNGRVIMFTRETQGASGQARLYSVDISGRNLKPVKTPDGASDPSWSPLQN | not soluble |
| MAMAALKDLVEFQLKNAQELVTVLEAEKVAITSRISVDIESIAKQKLTLVNQLQQTDQRIAKHPHVASLTEDTYLNELVSQIRSIIMDCQQANLINGDALARAQLSFNKLNNLMQQSHGKIGMTYSATGKTHTISTLGTNIKA | not soluble |
| MGSDKIHHHHHHMSPKVFVSHASEDKDRFVLQFAERLRQKGIDAWLDKWEMLPGDSLVDKIFEEGIKEAKAVIVVLSKFSVEKPWVREELNAAFVKRINNGSKLIPIVIDDCEVPEALKSTLWEPIADLSAYDKSFDRIVASIYGANDRPPIGPQPEYVQSFVQAIGNLNNIDSLVLRFSCEEVLKTGNAFVNPERVFLKDDKPILPEDELKDSLEILDGGGYIKLMRTLGGGFFPYQITTYGFDVYANASIPDYQGKIAAVVSAIVNEKLMSNAKIQERLKENKIIVDHILNVLENKGHIKQSKMIGGLSEIFNVSPSLKRALSGG | not soluble |
| MEEVFTAALESKIFRKRWVLLPDYVPDVLPHREAELRRLAEVLAPALRGEKPSNALLYGLTGTGKTAVARLVLRRLEARASSLGVLVKPIYVNARHRETPYRVASAIAEAVGVRVPFTGLSVGEVYERLVKRLSRLRGIYIIVLDEIDFLPKRPGGQDLLYRITRINQELGDRVWVSLVGITNSLGFVENLEPRVKSSLGEVELVFPPYTAPQLRDILETRAEEAFNPGVLDPDVVPLCAALAAREHGDARRALDLLRVAGEIAERRREERVRREHVYSARAEIERDRVSEVVRTLPLHAKLVLLSIMMLEDGGRPASTGEIYERYKELTSTLGLEHVTLRRVSGIISELDMLGIVKSRVVSRGRYGKTREVSLDADRLAVENALSEDPFVARLL | not soluble |
| MSKFDTSALEAFVRHIPQNYKGPGGVVAVVKDGEVVLQHAWGFADLRTRTPMTLDTRMPICSVSKQFTCAVLLDAVGEPELLDDALEAYLDKFEDERPAVRDLCNNQSGLRDYWALSVLCGADPEGVFLPAQAQSLLRRLKTTHFEPGSHYSYCNGNFRILADLIEAHTGRTLVDILSERIFAPAGMKRAELISDTALFDECTGYEGDTVRGFLPATNRIQWMGDAGICASLNDMIAWEQFIDATRDDESGLYRRLSGPQTFKDGVAAPYGFGLNLHETGGKRLTGHGGALRGWRCQRWHCADERLSTIAMFNFEGGASEVAFKLMNIALGVSSSEVSRVEADSAWFGSWLDDETGLVLSLEDAGHGRMKARFGTSPEMMDVVSANEARSAVTTIRRDGETIELVRASENLRLSMKRVKGEAKHDIIGRYHSDELDADLLLVSEGGAIYGAFEGFLGKSDMYPLYSVGSDVWLLPVQRSMDAPSPGEWKLVFRRDDKGEITGLSVGCWLARGVEYRRVQP | soluble |
| MKVKNNAQLLMPREKMLKFGISALTDVELLALFLRTGTRGKDVLTLAKEMLENFGSLYGLLTSEYEQFSGVHGIGVAKFAQLKGIAELARRYYNVRMREESPLLSPEMTREFLQSQLTGEEREIFMVIFLDSQHRVITHSRLFSGTLNHVEVHPREIIREAIKINASALILAHNHPSGCAEPSKADKLITERIIKSCQFMDLRVLDHIVIGRGEYVSFAERGWI | not soluble |
| MTDIETIYKKLSHVISKEDFLQRIQEKVENMGGLCDETMAAMLVANELGFSDAGRDSIKIENITPESGPVNFIARIISVFDTKEFTRNDGTIGRVGNLIVGDETGKVKLTLWDNMADLIKMGKIKAGQSVQVSGFAKQGYSGVEVNIGNNGVLTESEEEIDVVSNSYKIKDIKDGMGDINLNGKVLEVSEIRTFQRKDGNSGRVGNLMLGDETGTLRVTLWDDKTDFLSQVEYGDSIELINAYARENAFSQKVELQVGNRSIIRKSEKKIEYEEEFTPIDDIKADMNNINISGRILDISEVRTFEKKDGSTGRVGNVLLGDSTGKIRLTLWDEKTDILEEIDFDETVEVLNAYSRENTFSQQVELNLGARGIIQRSEKKVEYREKFTDIADIIPGESYSIQGKVAEIGELREFEKEDGTENVVANLQLKDDTGSIRLTLWGEQAYVIEDLDIDSEIQIIDAYARYGLNEEIELSVGNRSRVIILLEHHHHHH | soluble |
| PPAVSDIRVTRSSPSSLSLAWAVPRAPSGAVLDYEVKYHEKGAEGPSSVRFLKTSENRAELRGLKRGASYLVQVRARSEAGYGPFGQEHHSQTQLD | soluble |
| MFALEVLALERRTALLLGASGLVGGELLKLLLQSDLYRCVTIFVRTPLPVEHEKLQQVVVDFARLESYERYFYVDDVFCCLGTTRKKAKTKQQFIQVDYEYTLRAAALAEKCRAKSFLTVSSVGANPCSPFFYQRVKGETEEALQRLSIPSLHIFRPSLLVGKRREFRLGEALGGWLLCRLPFLFVGKWKKYKPVDAHQLALAMFYRAASATSGVHIYECDELARIS | not soluble |
| SISQQTVWNQMATVRTPLNFDSSKQSFCQFSVDLLGGGISVDKTGDWITLVQNSPISNLLRVAAWKKGCLMVKVVMSGNAAVKRSDWASLVQVFLTNSNSTEHFDACRWTKSEPHSWELIFPIEVCGPNNGFEMWSSEWANQTSWHLSFLVDNPKQSTTFDVLLGISQNFEIAGNTLMPAFSVPQANARSSENAESSA | soluble |
| MKVEEILEKALELVIPDEEEVRKGREAEEELRRRLDELGVEYVFVGSYARNTWLKGSLEIDVFLLFPEEFSKEELRERGLEIGKAVLDSYEIRYAEHPYVHGVVKGVEVDVVPCYKLKEPKNIKSAVDRTPFHHKWLEGRIKGKENEVRLLKGFLKANGIYGAEYKVRGFSGYLCELLIVFYGSFLETVKNARRWTRRTVIDVAKGEVRKGEEFFVVDPVDEKRNVAANLSLDNLARFVHLCREFMEAPSLGFFKPKHPLEIEPERLRKIVEERGTAVFAVKFRKPDIVDDNLYPQLERASRKIFEFLERENFMPLRSAFKASEEFCYLLFECQIKEISRVFRRMGPQFEDERNVKKFLSRNRAFRPFIENGRWWAFEMRKFTTPEEGVRSYASTHWHTLGKNVGESIREYFEIISGEKLFKEPVTAELCEMMGVKD | soluble |
| MGSDKIHHHHHHMTISIPDTLTTDNSEKYIVSIRLRSGGLSFSGYDPSAGGSFFYRETEFDRAVSFISSLKEFFFAHEFLTWTYKRINVICVSPEYSLVPDNYWGDGKEGRLLDFSFSTLELHCLTDTLKEQQAKLVFGVDEEVYEFCSRSLLHPFFSHYMTSLLTLWTKESSASLPRQMYVVIERKRMDVACYAQGKLLFVNSYPIDQSDDIVYYILYVWKQAGLDQEKDQLLLAGESSSRMRVLERLRAYLRHVKPVEIPSEAYLLGTDVTKAPMDLISLLICE | not soluble |
